In the supplement of paper PMC12042874:
± gives the uncertainty stated by the source.

experiment: amyloid nucleation score (Sup35N fusion, yeast selection) (log enrichment); library NNK3; higher = more nucleation; inactive = no reads after selection
Procedure, shortened: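 Peptides of 20 random codons, each fused to Sup35N, were expressed in psi-negative yeast. Cells were induced with 100 μM copper sulfate for 24 hours and grown 7 days at 30°C on medium lacking adenine and uracil, and plasmid inserts before and after selection were Illumina-sequenced. Nucleation scores are DiMSum log enrichments of output over input reads, centred on the mode score of non-aggregating sequences, and sequences under 100 input reads were excluded.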

| Substance | amyloid nucleation score |
| --- | --- |
| RTSVYAALSWGEAVLREVFE | inactive |
| TQRRFMYMAFNQYMSQSSSR | inactive |
| LVVLLFYFCYSHGYDEKVQW | 0.996 ± 0.12 |
| INSVSRGCINHFASVEGPCI | inactive |
| CVAYSRTEVRFYRYEHLWV | 1.18 ± 0.12 |
| VIKTHMWLGL | 0.633 ± 0.24 |
| NKRGNVASLLSLACKYGAEQ | inactive |
| MDDFLYAVPMWELWKVLRDE | inactive |
| YGFRRTACMCL | inactive |
| ESADATLREAKSSVYKKYRY | inactive |
| IYFDVV | inactive |
| NDYGDGVSHLMGTGTPTSLW | inactive |
| FFVMCARGHTMRSYTFFVK | inactive |
| IYNRNGRF | inactive |
| FVQGYSFWYWVETYMFIRFV | inactive |
| CCLTIGSKPIYHCWQLGIMA | inactive |
| PGEHCWRRFLT | inactive |
| DLIRQRAETPKMVISWR | inactive |
| CNSYTYVEGSNYNGSSQGLD | inactive |
| WVFSSNVRKYMRALRRRYSD | inactive |
| LTCSWIICLSMSYLTSRYNR | 1.83 ± 0.1 |
| RFKCSTNGCRTFRGHHYNVK | inactive |
| NVEMLFNNSHHSTDEDAWYD | inactive |

| Substance | amyloid nucleation score |
| --- | --- |
| TGPFGINLRGR | inactive |
| LSMFGGNASALL | inactive |
| VWVHA | inactive |
| MKFFVNLAYIFFRFFSLRLL | inactive |
| FFNIYLVRNSYQKTCAGLTR | 2.05 ± 0.091 |
| STMWYYMLVVIMRSCRAGDR | 0.793 ± 0.17 |
| LWGKNWIDVAECIVCLPQAS | inactive |
| LSYNTVDVWPLAFNFWWMIS | 0.199 ± 0.44 |
| CGYKEVGVPASRRMNS | inactive |
| SKFSSC | inactive |
| FSPRKSLASLGITVVVDHCI | -0.057 ± 0.81 |
| FIGVCNLVWMELPLDAMRFF | 1.36 ± 0.11 |
| LVGHEFTAGSNYDSDLGTV | inactive |
| MCYALMRTTWCGKLKIVLSG | inactive |
| HYLHRG | inactive |
| YRMTGKLYAVIECSDTVLSG | inactive |
| CLQSARYKIFCFFYFDVLSH | inactive |
| LEYDRTFKILFCGGSGWHYS | inactive |
| TIISCFREKIGLSRM | inactive |
| NSTDRMTASS | inactive |
| GYNCALWDVGCLHVFRPYAN | inactive |
| DRVSFSITY | inactive |
| TLDVQGTCH | inactive |

| Substance | amyloid nucleation score |
| --- | --- |
| VRWQYVYMPPA | inactive |
| RDVFINPTTGQALNVWACCR | inactive |
| VKLNYISLDENVRSVKQVMI | inactive |
| AYKYVTVCLVDSSVLTSNRG | inactive |
| PFSSFWVTRTLIALWYSLRT | inactive |
| ASLVKSHDHMRASHLGGLHK | inactive |
| ERALPQGMDRWSWFRERSCH | inactive |
| RWCMVIDSTNWCSCDRKHGA | 1.49 ± 0.13 |
| LGYWKFSIRHFEGGRLQIHF | 2.7 ± 0.056 |
| CCGGFIVMQQAGGSPIDGQG | 0.29 ± 0.2 |
| LNFAHAKMFSFITMVVY | inactive |
| YEPTSAK | inactive |
| GFYRLVVQGLVVSRGLNWCV | inactive |
| RDWKEDLFFF | inactive |
| DNLQVTRCYLADWMSSVT | inactive |
| ISGFKIVSYMNKIVVSTMGL | inactive |
| VIRQVCYYRLGEWLLGAR | inactive |
| EYYDI | inactive |
| SILDCLLKMGFNTILHACWN | inactive |
| NSCLV | inactive |
| DYKMVRYWNLE | inactive |
| GKIEDYCLVRESQAIPSLLQ | inactive |
| VCNMRVYI | inactive |

| Substance | amyloid nucleation score |
| --- | --- |
| CLSLDQWWLHRYDHLVLGET | inactive |
| RLTHLLHCYTI | inactive |
| PILMISCAAGKELQLKVLWN | inactive |
| TTRYHF | inactive |
| SLFRNS | inactive |
| FYMYLTSVCA | inactive |
| IYIRRVRISVEATLRHCCVI | inactive |
| NTMMA | inactive |
| FDERRSRGPSKSMKGLLTTY | inactive |
| HKSINVIRDPGKIVFLTEVI | inactive |
| LCNSVRNGNYYTGYGVTLYV | inactive |
| ISFSWHF | 0.789 ± 0.17 |
| LLLTSVL | inactive |
| KYCRRVYSSAETLYVLTHI | inactive |
| MVMQIYIDDRPSMKVLYSEM | 0.485 ± 0.21 |
| KHVNLWSVGWFLGFLVWSRA | inactive |
| TGCPWIRTVNPVVPWVCEHR | inactive |
| DYSFYTFPESAVLCTCSSYG | -0.682 ± 1.1 |
| IVYREVCVFVNM | 1.78 ± 0.063 |
| FVLESFCRPLHSWVAGMGV | inactive |
| CVTSVVFRFRQHGYTRKGMA | 1.27 ± 0.15 |
| NYWYITKERGSNLVWSNGDE | inactive |
| TVIWLYIFRSQMPPVNPMRL | inactive |

| Substance | amyloid nucleation score |
| --- | --- |
| LKSCGMRVSKCCFIDICELC | 0.022 ± 0.75 |
| IETGSKYVAVRARLQSVMDG | inactive |
| AWPIIRFYIQRYLWIVRGRG | inactive |
| IVTYLLFDYHNPTRVSYYEC | inactive |
| RSKSF | inactive |
| DSKVLSFSWAMFMLIM | inactive |
| FLLVNLTVITRACEKLPMRP | -0.277 ± 1.1 |
| ILFGGRNGKWLVEPGLSRVL | 0.84 ± 0.23 |
| KYNTCSEV | inactive |
| LFNYVSMPANSSSRYTGMLL | inactive |
| RNQFWTWYGVSMLSNRQHGK | inactive |
| HSAVE | inactive |
| RACARVLLEVCFLFEFSMST | inactive |
| FWTGVACNTAGCCLGYESLR | inactive |
| LLLIKPRKVPLIEVCGWETV | inactive |
| WCFYKSLIACGHIVGIEPDW | 0.848 ± 0.15 |
| LSDFMLVAILTV | inactive |
| LMSTKVVFEL | 0.076 ± 0.19 |
| NDLSDSMRVR | inactive |
| YDRGLISWTCVRVSS | inactive |
| ETQWFEI | inactive |
| TSGHLVLGGYLSNQVKSVFR | 0.605 ± 0.24 |
| SAGWMSTKVSVQLTNYPGLA | 1.33 ± 0.16 |

| Substance | amyloid nucleation score |
| --- | --- |
| SSKNINVILMIKR | 2.05 ± 0.066 |
| YLFVELYYL | 0.187 ± 0.75 |
| PWGPW | inactive |
| TDIAPLAGGITSSDNIVRTK | inactive |
| LYMNATLSYCGTYCMVTQMV | inactive |
| FLRLCLVVRLRCVVISMGNY | inactive |
| CKDSDSTIPRMLLLRLKTEL | inactive |
| WFTVHLIVCSVRRLDSFVLP | inactive |
| GTDSFAIYSWKIRLLSERYP | inactive |
| GDCFWSPDKNWIALEVFQTF | inactive |
| VNGLLAIRVYCKHWP | inactive |
| AERAWYGGCLNRILLSVCCH | inactive |
| WRCLYYMQAYSSN | inactive |
| YTMLFLLLSWNVFFISWCCF | inactive |
| MYLNNFAWRVTVWNIFVHAL | 0.512 ± 0.16 |
| THGNMCYEWIPKVPTIISVG | inactive |
| FRSNGSIWVRGSETFTIAP | inactive |
| HGILEWMDCVLTLFTRVGMS | inactive |
| LFLMLG | inactive |
| RSVQSVFNTIGCQTYVSPVW | inactive |
| TCLEVYGSDMFRTKIRNHDK | inactive |
| HNRLSQVTDQLGRLVSRSLR | inactive |
| NNSFNYGNHGRSSVFNNLRC | inactive |

| Substance | amyloid nucleation score |
| --- | --- |
| HAEPIYFYIVRTLKDG | inactive |
| TNTSFSNWRCTPDRGIM | inactive |
| CTGYDCVGMGADFCARMWHC | inactive |
| SLMPMNYYGVTINVRWSLIQ | 0.554 ± 0.45 |
| YLEVLVGSNQCFNMQG | inactive |
| YARYNTLVLSAKPPLLYDSW | inactive |
| PTGSFMLLET | inactive |
| CRRNTVFMNRVYNNGLFEEC | inactive |
| VGGQWGAYAAKA | inactive |
| IYCTFAAFSHCQQWKNLFWR | -0.456 ± 1.1 |
| ALESTMVWLSQRQGRFVHSL | -0.284 ± 0.7 |
| FVESSDLMRMSWFWWTGWDL | inactive |
| LGDYSLTE | inactive |
| MGNRNDSNLTRCWESTLVVK | inactive |
| VGAGWYN | inactive |
| MTSITVDYDNLDYRIAMITW | inactive |
| LSLHEGWSVNCVFCLLLTVW | 2.42 ± 0.077 |
| VQWCPNVYTDSQVCRYVSSR | inactive |
| GVGCTKSECRSICMPKHP | inactive |
| FDVRCLWYCQK | 1.33 ± 0.17 |
| PRRSERYFCFF | 0.443 ± 0.23 |
